This is an account of results in patent publication US9714285 (dated 2017).

Experiment [1] concerns the target T1, TGFβ1 (human, UniProt P01137). The experiment in a line: competition, SPR vs TGFβ-RII.
Experiment [2] deals with T2, TGFβ2 (human, UniProt P61812).
T2 chain: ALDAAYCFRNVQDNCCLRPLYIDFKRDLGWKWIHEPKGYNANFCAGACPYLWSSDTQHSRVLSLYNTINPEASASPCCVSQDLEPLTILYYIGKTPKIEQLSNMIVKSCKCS
The experiment in a line: competition, SPR vs TGFβ-RII.

Experiment [3] concerns the target T1, TGFβ1. The experiment in a line: competition, SPR vs TGFβ-RIII.
Experiment [4] deals with T3, TGFβ3 (human, UniProt P10600).
T3 chain: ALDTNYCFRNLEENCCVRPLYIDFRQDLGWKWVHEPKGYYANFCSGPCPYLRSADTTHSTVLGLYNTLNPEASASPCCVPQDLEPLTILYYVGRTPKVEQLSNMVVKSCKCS
Put plainly: competition, SPR vs TGFβ-RIII.

Experiment [5] addresses T3, TGFβ3. The experiment in a line: competition, SPR vs TGFβ-RII.
The target of experiment [6] is T2, TGFβ2. Put plainly: competition, SPR vs TGFβ-RIII.
Experiment [7] deals with T3, TGFβ3. Put plainly: SPR.
In experiment [8] the target is T1, TGFβ1. The experiment in a line: SPR. In general terms: SPR reads the build-up and loss of mass on a sensor chip optically.
The target in experiment [9] is T2, TGFβ2. The experiment in a line: SPR.

B1: XPA.42.089 (antibody, V domains shown)
VH: QVQLVQSGAEVKKPGSSVKVSCKASGGTFSSYAISWVRQAPGQGLEWMGGIIPIFGTANYAQKFQGRVTITADESTSTAYMELSSLRSEDTAVYYCARGLWEVRALPSVYWGQGTLVTVSS
VL: SYELTQPPSVSVAPGQTARITCGANDIGSKSVHWYQQKAGQAPVLVVSEDIIRPSGIPERISGSNSGNTATLTISRVEAGDEADYYCQVWDRDSDQYVFGTGTKVTVLG
As to B1, the EC50 came to 1.7 nM in the experiment with TGFβ1 [1]; 1.8 nM in the experiment with TGFβ2 [2]; 1.2 nM in the experiment with TGFβ1 [3]; 31 nM with TGFβ3 [4]; 34 nM in the experiment with TGFβ3 [5]; 1.6 nM in the experiment with TGFβ2 [6].

B2: TGFβ-RI (protein)
chain: LQCFCHLCTKDNFTCVTDGLCFVSVTETTDKVIHNSMCIAEIDLIPRDRPFVCAPSSKTGSVTTTYCCNQDHCNKIELPTTVKSSPGLGPVEL
For B2, the binding result with TGFβ3 [7], with TGFβ1 [8] and in the experiment with TGFβ2 [9] was “no binding” in each case.

B3: XPA.42.681 (antibody, V domains shown)
VH: not shown
VL: SYVLTQPPSVSVAPGKTARITCGGNNIGFRSVHWYQQKSGQAPVLVIYFDRARPSGIPERFSASNSENTATLTIRRVEAGDEADYYCQVWDSDSDDLVFGGGTQLTVLG
B3: the EC50 is 2.3 nM in the experiment with TGFβ1 [1]; 1.7 nM with TGFβ2 [2]; 1.2 nM with TGFβ1 [3]; 1.1 nM with TGFβ3 [4]; 1.2 nM with TGFβ3 [5]; 2.1 nM with TGFβ2 [6].

B4: XPA.42.068 (antibody, V domains shown)
VH: not shown
VL: SSELTQPPSVSVAPGEKARITCGGNNIGRKSVHWYQQRPGQAPVVVLYYDRVRPSGIPERFSGSNSGNTATLTITRVEAGDEADYFCQVWDNTSEHVVFGGGTQLTVLG
In the case of B4, the EC50 with TGFβ1 [1] is 2 nM; with TGFβ2 [2], 2.2 nM; with TGFβ1 [3] it was 0.6 nM; with TGFβ3 [4], 1.9 nM; with TGFβ3 [5], 1.4 nM; in the experiment with TGFβ2 [6], 2.4 nM.

Usually EC50 stands for the concentration that produces a half-maximal response. Read a low EC50 as higher potency in that assay.
